According to patent US20250304666A1 (ALCHEMAB THERAPEUTICS, published 2025):

How the values were obtained:
reduced CFHR3 [1] = target: T1, reduced CFHR3 (UniProt Q02985 19-330, limits assumed); test: ELISA on reduced CFHR3
T1 sequence (looked up): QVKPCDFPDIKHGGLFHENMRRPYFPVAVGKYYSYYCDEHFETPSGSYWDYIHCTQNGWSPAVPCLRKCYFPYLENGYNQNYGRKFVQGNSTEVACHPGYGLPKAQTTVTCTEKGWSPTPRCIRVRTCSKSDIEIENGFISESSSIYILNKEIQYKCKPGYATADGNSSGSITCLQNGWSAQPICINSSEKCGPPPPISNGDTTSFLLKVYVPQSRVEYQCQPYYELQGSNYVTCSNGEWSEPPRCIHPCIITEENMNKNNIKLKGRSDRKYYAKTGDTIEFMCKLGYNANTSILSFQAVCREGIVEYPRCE

reduced CFHR1 = target: T2, reduced CFHR1 (UniProt Q03591 19-330, limits assumed); test: ELISA, reduced antigen
T2 sequence (looked up): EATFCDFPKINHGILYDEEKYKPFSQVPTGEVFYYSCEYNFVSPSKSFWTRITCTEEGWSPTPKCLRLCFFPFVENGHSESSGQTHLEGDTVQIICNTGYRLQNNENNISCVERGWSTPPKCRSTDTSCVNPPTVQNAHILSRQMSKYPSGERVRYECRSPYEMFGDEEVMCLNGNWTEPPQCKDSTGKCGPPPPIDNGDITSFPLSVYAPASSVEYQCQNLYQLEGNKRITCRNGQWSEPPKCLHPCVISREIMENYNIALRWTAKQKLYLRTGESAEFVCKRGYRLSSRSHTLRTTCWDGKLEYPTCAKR

reduced CFHR2 = target: T3, reduced CFHR2 (UniProt P36980 19-270, limits assumed); test: ELISA, reduced antigen
T3 sequence (looked up): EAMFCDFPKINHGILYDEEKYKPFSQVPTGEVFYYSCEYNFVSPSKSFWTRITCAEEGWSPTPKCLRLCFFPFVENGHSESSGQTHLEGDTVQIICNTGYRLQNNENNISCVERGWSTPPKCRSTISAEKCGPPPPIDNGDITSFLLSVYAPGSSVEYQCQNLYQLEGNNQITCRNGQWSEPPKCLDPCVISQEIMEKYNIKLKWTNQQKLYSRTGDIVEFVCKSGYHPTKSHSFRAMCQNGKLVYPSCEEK

reduced CFHR3 [2] = target: T1, reduced CFHR3; test: ELISA, reduced antigen
reduced CFHR5 [3] = target: T4, reduced CFHR5 (UniProt Q9BXR6 19-569, limits assumed); test: ELISA, reduced antigen
T4 sequence (looked up): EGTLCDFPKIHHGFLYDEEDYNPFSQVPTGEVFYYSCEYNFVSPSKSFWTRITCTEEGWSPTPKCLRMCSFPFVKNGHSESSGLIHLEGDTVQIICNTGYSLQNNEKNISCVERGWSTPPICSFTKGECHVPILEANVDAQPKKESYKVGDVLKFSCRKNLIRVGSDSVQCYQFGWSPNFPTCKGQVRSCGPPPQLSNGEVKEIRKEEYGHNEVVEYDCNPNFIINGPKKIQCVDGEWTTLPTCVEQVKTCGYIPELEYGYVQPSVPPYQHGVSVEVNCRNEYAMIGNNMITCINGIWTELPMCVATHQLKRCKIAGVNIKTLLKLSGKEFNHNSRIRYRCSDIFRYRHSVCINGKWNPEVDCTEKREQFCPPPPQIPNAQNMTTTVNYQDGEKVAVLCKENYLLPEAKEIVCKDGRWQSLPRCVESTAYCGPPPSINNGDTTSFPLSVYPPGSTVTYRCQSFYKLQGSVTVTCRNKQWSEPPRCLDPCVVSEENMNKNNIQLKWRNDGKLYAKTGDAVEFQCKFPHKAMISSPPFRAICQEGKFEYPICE

reduced CFHR5 [4] = target: T4, reduced CFHR5; test: ELISA on reduced CFHR5
non-reduced CFHR1 = target: T5, non-reduced CFHR1; test: ELISA, non-reduced antigen
T5 construct: also called CFHR1 (NON-REDUCED)
T5 chain: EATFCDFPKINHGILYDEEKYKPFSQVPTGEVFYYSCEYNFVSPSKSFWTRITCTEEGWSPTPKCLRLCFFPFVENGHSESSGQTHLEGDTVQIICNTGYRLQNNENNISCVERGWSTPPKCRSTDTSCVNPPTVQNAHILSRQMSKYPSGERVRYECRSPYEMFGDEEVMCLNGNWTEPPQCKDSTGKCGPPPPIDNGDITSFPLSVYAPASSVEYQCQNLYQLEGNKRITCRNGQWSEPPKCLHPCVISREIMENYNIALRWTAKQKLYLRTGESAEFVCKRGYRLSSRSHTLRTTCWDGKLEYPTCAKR

non-reduced CFHR3 = target: T6, non-reduced CFHR3; test: ELISA, non-reduced antigen
T6 construct: also called CFHR3 (NON-REDUCED)
T6 chain: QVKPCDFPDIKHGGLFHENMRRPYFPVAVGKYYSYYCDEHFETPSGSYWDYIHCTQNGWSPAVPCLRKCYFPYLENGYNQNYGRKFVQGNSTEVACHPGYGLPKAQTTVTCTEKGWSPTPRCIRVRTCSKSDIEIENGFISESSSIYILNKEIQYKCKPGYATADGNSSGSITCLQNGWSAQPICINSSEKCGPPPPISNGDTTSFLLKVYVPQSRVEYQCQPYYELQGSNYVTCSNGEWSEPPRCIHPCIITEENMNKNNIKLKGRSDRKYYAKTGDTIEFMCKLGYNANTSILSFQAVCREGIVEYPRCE

non-reduced CFHR2 = target: T7, non-reduced CFHR2; test: ELISA, non-reduced antigen
T7 construct: also called CFHR2 (NON-REDUCED)
T7 chain: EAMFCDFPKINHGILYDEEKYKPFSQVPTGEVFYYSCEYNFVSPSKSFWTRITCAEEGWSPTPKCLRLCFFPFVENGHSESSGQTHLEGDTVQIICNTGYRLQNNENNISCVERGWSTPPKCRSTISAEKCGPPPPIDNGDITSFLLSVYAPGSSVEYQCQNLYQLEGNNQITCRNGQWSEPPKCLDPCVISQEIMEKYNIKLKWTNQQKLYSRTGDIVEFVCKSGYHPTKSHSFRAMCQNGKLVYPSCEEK

non-reduced CFHR5 = target: T8, non-reduced CFHR5; test: ELISA, non-reduced antigen
T8 construct: also called CFHR5 (NON-REDUCED)
T8 chain: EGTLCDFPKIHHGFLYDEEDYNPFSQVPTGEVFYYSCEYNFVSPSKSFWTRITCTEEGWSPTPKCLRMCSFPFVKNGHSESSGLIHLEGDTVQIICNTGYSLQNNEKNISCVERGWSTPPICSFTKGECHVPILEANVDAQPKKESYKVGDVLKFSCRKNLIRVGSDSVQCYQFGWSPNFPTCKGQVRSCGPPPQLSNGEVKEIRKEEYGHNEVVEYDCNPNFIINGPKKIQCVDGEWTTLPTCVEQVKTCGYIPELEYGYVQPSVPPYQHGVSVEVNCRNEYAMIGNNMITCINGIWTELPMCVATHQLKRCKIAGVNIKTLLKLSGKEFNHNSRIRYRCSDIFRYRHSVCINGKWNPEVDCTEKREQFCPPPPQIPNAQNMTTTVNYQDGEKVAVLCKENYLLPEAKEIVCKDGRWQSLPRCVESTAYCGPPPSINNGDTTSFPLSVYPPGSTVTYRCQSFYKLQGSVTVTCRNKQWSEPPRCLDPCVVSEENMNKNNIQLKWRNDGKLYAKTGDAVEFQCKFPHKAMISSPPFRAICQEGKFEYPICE

non-reduced CFHR4 = target: T9, non-reduced CFHR4; test: ELISA, non-reduced antigen
T9 construct: not reduced; also called CFHR4 (NON-REDUCED)

reduced CFH [5] = target: T10, reduced CFH (Homo sapiens (Human), UniProt P08603 860-1231, limits assumed); test: ELISA on reduced CFH after heating the mAb (70 C, 1 h, as Figure 16)
T10 construct: also called CFH (reduced)
T10 sequence: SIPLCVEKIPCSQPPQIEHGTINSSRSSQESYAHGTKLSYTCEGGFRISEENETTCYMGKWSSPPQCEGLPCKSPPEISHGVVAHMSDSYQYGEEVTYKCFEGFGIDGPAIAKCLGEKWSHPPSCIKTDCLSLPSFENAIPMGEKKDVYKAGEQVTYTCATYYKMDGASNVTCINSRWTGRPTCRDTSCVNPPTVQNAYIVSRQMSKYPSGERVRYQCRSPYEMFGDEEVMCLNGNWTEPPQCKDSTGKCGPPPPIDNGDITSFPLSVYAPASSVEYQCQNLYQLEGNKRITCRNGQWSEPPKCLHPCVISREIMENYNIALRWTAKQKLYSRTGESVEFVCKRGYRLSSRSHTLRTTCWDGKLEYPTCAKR

reduced CFH [6] = target: T10, reduced CFH; test: ELISA, reduced antigen
non-reduced CFH = target: T11, non-reduced CFH; test: ELISA, non-reduced antigen
T11 construct: also called CFH (NON-REDUCED)
T11 chain: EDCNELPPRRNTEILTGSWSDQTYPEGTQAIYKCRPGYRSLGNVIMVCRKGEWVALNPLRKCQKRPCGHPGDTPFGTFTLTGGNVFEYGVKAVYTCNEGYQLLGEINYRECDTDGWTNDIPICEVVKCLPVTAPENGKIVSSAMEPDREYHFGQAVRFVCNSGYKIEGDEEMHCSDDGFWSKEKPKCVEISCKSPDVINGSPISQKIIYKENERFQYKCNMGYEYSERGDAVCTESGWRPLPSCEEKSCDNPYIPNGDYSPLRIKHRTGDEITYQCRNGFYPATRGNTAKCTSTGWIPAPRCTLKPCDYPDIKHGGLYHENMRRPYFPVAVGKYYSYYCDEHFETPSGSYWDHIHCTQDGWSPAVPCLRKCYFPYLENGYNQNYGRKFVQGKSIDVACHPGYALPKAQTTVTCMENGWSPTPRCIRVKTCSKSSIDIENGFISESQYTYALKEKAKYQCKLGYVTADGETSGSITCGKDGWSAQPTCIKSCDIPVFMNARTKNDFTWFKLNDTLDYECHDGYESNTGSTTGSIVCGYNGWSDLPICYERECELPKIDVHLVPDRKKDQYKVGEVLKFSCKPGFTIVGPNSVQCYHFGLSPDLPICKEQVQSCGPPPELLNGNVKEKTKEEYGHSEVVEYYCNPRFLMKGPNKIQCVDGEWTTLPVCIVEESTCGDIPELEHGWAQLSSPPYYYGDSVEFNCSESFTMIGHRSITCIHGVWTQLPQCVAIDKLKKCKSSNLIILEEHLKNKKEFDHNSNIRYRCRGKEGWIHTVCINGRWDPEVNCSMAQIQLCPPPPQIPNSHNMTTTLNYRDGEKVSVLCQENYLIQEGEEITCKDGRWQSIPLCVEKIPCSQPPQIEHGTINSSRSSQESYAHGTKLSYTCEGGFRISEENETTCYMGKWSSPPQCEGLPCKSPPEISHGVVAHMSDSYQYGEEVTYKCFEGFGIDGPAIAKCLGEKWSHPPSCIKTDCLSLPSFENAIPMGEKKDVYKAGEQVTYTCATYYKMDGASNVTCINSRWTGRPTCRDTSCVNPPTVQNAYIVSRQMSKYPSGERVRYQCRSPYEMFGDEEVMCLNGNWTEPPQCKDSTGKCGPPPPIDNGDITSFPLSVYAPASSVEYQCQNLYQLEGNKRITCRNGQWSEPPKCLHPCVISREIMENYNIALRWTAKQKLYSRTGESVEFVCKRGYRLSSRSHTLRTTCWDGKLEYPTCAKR

B1: ATL_0005155 (antibody, human IgG1, kappa, V domains shown)
VH: QVQLVESGGGVVQPGRSLRLSCAASGFTFSNYGMHWVRQAPGKGLEWVAVTSFDGKTKYYADSVKGRFTISRDNSKNTLYLQMNSLRAEDTAVYYCAKGGATAAVFDSWGQGTLVTVSS
VL: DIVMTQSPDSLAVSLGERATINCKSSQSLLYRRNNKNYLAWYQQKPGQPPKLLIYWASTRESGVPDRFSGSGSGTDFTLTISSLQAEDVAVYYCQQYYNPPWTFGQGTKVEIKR
notes: one of the 10 lead mAbs; IgG1; also called ATL5155; ATL_0005155-001
binding result (reduced CFHR3 [1]): no binding (tested: 100 ug/ml) | fold change vs isotype at 1 ug/ml (reduced CFHR1): 23 fold | fold change vs isotype at 1 ug/ml (reduced CFHR2): 11.3 fold | fold change vs isotype at 1 ug/ml (reduced CFHR3 [2]): 1 fold | fold change vs isotype at 1 ug/ml (reduced CFHR5 [3]): 1 fold | binding result (reduced CFHR5 [4]): no binding (tested: 100 ug/ml) | fold change vs isotype at 1 ug/ml (non-reduced CFHR1): 13 fold | binding result (non-reduced CFHR3): no binding (tested: 1 ug/ml) | fold change vs isotype at 1 ug/ml (non-reduced CFHR3): 1 fold | fold change vs isotype at 1 ug/ml (non-reduced CFHR2): 7 fold | binding result (non-reduced CFHR5): no binding (tested: 1 ug/ml) | fold change vs isotype at 1 ug/ml (non-reduced CFHR5): 1 fold | fold change vs isotype at 1 ug/ml (non-reduced CFHR4): 1 fold

B2: ATL_0004894 (antibody, human IgG1, kappa, V domains shown)
VH: QVQLVESGGGVVQPGRSLRLSCAASGFTFSIYGMHWVRQAPGKGLEWVAVMSFDGKTKYYADSVKGRFTISRDNSKNTLYLQMNSLRAEDTAVYYCAKGGATAAVFDSWGQGTLVTVSS
VL: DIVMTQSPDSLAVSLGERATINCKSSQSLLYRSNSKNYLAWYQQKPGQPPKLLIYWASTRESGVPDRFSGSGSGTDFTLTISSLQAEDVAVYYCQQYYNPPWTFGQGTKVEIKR
notes: germlined ATL4717, IgG1; also called ATL4894; 4894 IgG
Harsh Heat challenge ELISA value (reduced CFH [5]): 0.58 | fold change vs isotype at 1 ug/ml (reduced CFHR1): 24.4 fold | fold change vs isotype at 1 ug/ml (reduced CFH [6]): 18.4 fold | fold change vs isotype at 1 ug/ml (reduced CFHR2): 10.3 fold | fold change vs isotype at 1 ug/ml (reduced CFHR3 [2]): 1 fold | fold change vs isotype at 1 ug/ml (reduced CFHR5 [3]): 1 fold | fold change vs isotype at 1 ug/ml (non-reduced CFH): 9.8 fold | fold change vs isotype at 1 ug/ml (non-reduced CFHR1): 16.6 fold | fold change vs isotype at 1 ug/ml (non-reduced CFHR3): 1 fold | fold change vs isotype at 1 ug/ml (non-reduced CFHR2): 7.7 fold | fold change vs isotype at 1 ug/ml (non-reduced CFHR5): 0.9 fold
